The results in this text go back to patent US20140335192.

What all share (assay): ITC
Conditions in all cases: 250 uM protein into 40 uM siRNA, unit of K not stated

Data set [1] deals with DRBD (double-stranded RNA binding domain).
The test system of data set [2] is DRBD-PTD chimera (RND-DRBD).
The subject of data set [3] is PTD (protein transduction domain peptide).

For Luciferase siRNA, the Ka stood at 15200 in data set [1] (Sorensen's phosphate buffer, enthalpy 1998.83 kJ/mol); 10500 in data set [1] (deionized water, enthalpy 201.18 kJ/mol); 2.12e+07 in data set [2] (Sorensen's phosphate buffer, enthalpy 61.51 kJ/mol); 1e+10 in data set [2] (deionized water, enthalpy 98.92 kJ/mol); 1.04e+07 in data set [3] (Sorensen's phosphate buffer, enthalpy 14.03 kJ/mol); 1e+10 in data set [3] (deionized water, enthalpy 29.83 kJ/mol).
